Laboratory results: PMC5819950, “3.3-Å resolution cryo-EM structure of human ribonucleotide reductase with substrate and allosteric regulators bound” (eLife, 2018)

B1: human ribonucleotide reductase large subunit (alpha) (enzyme, UniProt P23921 1-792, looked up)
chain: MHVIKRDGRQERVMFDKITSRIQKLCYGLNMDFVDPAQITMKVIQGLYSGVTTVELDTLAAETAATLTTKHPDYAILAARIAVSNLHKETKKVFSDVMEDLYNYINPHNGKHSPMVAKSTLDIVLANKDRLNSAIIYDRDFSYNYFGFKTLERSYLLKINGKVAERPQHMLMRVSVGIHKEDIDAAIETYNLLSERWFTHASPTLFNAGTNRPQLSSCFLLSMKDDSIEGIYDTLKQCALISKSAGGIGVAVSCIRATGSYIAGTNGNSNGLVPMLRVYNNTARYVDQGGNKRPGAFAIYLEPWHLDIFEFLDLKKNTGKEEQRARDLFFALWIPDLFMKRVETNQDWSLMCPNECPGLDEVWGEEFEKLYASYEKQGRVRKVVKAQQLWYAIIESQTETGTPYMLYKDSCNRKSNQQNLGTIKCSNLCTEIVEYTSKDEVAVCNLASLALNMYVTSEHTYDFKKLAEVTKVVVRNLNKIIDINYYPVPEACLSNKRHRPIGIGVQGLADAFILMRYPFESAEAQLLNKQIFETIYYGALEASCDLAKEQGPYETYEGSPVSKGILQYDMWNVTPTDLWDWKVLKEKIAKYGIRNSLLIAPMPTASTAQILGNNESIEPYTSNIYTRRVLSGEFQIVNPHLLKDLTERGLWHEEMKNQIIACNGSIQSIPEIPDDLKQLYKTVWEISQKTVLKMAAERGAFIDQSQSLNIHIAEPNYGKLTSMHFYGWKQGLKTGMYYLRTRPAANPIQFTLNKEKLKDKEKVSKEEEEKERNTAAMVCSLENRDECLMCGS
notes: human ribonucleotide reductase α (large) subunit, 792 residues; the final cryo-EM model holds two residues of tag and residues 1-743, and the 49-residue C-terminal tail is disordered; The number of copies depends on the nucleotides: α2 with TTP, α6 ring (three α2) with dATP, ATP, dATP + ATP, ClFDP or ClFTP; also called human α

Legend:
[1] = target: the molecule itself; test: cryo-EM structure; 14 μM α with 0.05 mM dATP, 3 mM ATP, 1 mM CDP in 50 mM HEPES pH 7.6, 15 mM MgCl2, 1 mM EDTA, 5 mM DTT, 50 mM KCl, incubated at 37°C; single-particle map at 3.3 Å
[2] = target: the molecule itself; test: negative stain EM; α with 0.1 mM TTP, same buffer; 2D class averages
[3] = target: B1; test: negative stain EM; 3 μM α and 3 μM β with 3 mM ATP, 0.05 mM dATP, 1 mM CDP in 50 mM HEPES pH 7.6, 15 mM MgCl2, 50 mM KCl, 5 mM DTT, 37°C for 2 min, diluted ~20 fold; ISAC averages; conditions: both partners purified

Row | Binder | stoichiometry N [1] | stoichiometry N [2] | stoichiometry N [3]
1 | B1 | 6 | 2 | 
2 | human ribonucleotide reductase β subunit (enzyme, human ribonucleotide reductase β (small) subunit, homodimer β2 with the diferric-tyrosyl radical cofactor; also called β2; human β) TKAAAPGVEDEPLLRENPRRFVIFPIEYHDIWQMYKKAEASFWTAEEVDLSKDIQHWESLKPEERYFISHVLAFFAASDGIVNENLVERFSQEVQITEARCFYGFQIAMENIHSEMYSLLIDTYIKDPKEREFLFNAIETMPCVKKKADWALRWIGDKEATYGERVVAFAAVEGIFFSGSFASIFWLKKRGLMPGLTFSNELISRDEGLHCDFACLMFKHLVHKPSEERVREIIINAVRIEQEFLTEALPVKLIGMNCTLMKQYIEFVADRLMLELGFSKVFRVENPFDFMENISLEGKTNFFEKRVGEYQRMGVMSSPTENSFTLDADF |  |  | 1 β2 per α6 ring
